In assay [1] the target is T1, combined FGFR1 Ig modules 2, 3 (mouse, UniProt P16092 141-365).
T1 construct: Expressed in Drosophila S2 cells; immobilized on CM5 chip by amine coupling in the SPR experiments; also called FGFR Ig modules 2, 3; FGFR modules 2, 3
T1 sequence: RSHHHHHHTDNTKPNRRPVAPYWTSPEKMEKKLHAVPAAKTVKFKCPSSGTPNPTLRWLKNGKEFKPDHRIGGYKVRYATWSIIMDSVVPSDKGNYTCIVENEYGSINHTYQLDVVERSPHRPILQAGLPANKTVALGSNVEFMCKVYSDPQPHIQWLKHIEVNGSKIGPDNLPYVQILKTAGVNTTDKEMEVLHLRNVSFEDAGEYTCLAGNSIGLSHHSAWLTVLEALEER
Description: SPR (BIAcoreX), FGFR Ig modules 2, 3 immobilized on CM5. (In SPR one partner is held on a chip, and binding of the other changes the refractive index at the surface.)

In assay [2] the target is FGFR on embryonic rat hippocampal neurons (rat). Description: cell-based or functional assay.
Assay [3] concerns the target T1, combined FGFR1 Ig modules 2, 3. Description: SPR, FGFR Ig modules 2, 3 immobilized.
For assay [4] the target is unchanged. Description: SPR, apparent Kd, FGFR Ig modules 2, 3 immobilized.

No end group written: not given here.

B1: combined NCAM F3 modules 1, 2 (other, rat)
chain: AGHHHHHHQADTPSSPSIDRVEPYSSTAQVQFDEPEATGGVPILKYKAEWKSLGEEAWHSKWYDAKEANMEGIVTIMGLKPETRYAVRLAALNGKGLGEISAATEFKTQPVREPSAPKLEGQMGEDGNSIKVNLIKQDDGGSPIRHYLVKYRALASEWKPEIRLPSGSDHVMLKSLDWNAEYEVYVVAENQQGKSKAAHFVFRTSAQ
notes: range 507-705; Recombinant, expressed in P. pastoris KM71; also called double module protein
For the molecule B1, in assay [1], the Kd was 9.97 µM; the koff (commonly the first-order rate constant of dissociation) was determined as 0.00556 s⁻¹; the kon – broadly, a measure of how fast the partners come together – came to 889 M⁻¹ s⁻¹.

B2: truncated FG loop peptide, heptamer Ala77-K83 (peptide)
peptide: AENQQGK
Consider B2, for which, in assay [2], the “neurite outgrowth from hippocampal neurons, stimulatory effect relative to the entire FG loop peptide” value was around 50%.

B3: FG loop peptide in which Y74, K83 and K85 were substituted with alanine (peptide)
peptide: EVAVVAENQQGASAA
Regarding B3, in assay [2], the “neurite outgrowth from hippocampal neurons, stimulatory effect relative to the non-mutated peptide” value is around 60%.

B4: truncated FG loop peptide, nonamer V78-S84 (as printed) (peptide)
peptide: VAENQQGKS
As for B4, the “neurite outgrowth from hippocampal neurons, stimulatory effect relative to the entire FG loop peptide” value in assay [2] is around 50%.

B5: dendrimeric FG loop peptide (SEQ ID NO: 1) (peptide)
peptide: EVYVVAENQQGKSKA
modifications: also: tetrameric dendrimer: four peptides joined through their C-termini to a three-lysine backbone
notes: Tetrameric dendrimer on a three-lysine backbone; also called dendrimeric version of the FG loop peptide
For the molecule B5, in assay [3], the koff was determined as 0.00397 s⁻¹ and the kon stood at 2070 M⁻¹ s⁻¹. In addition, in assay [4], the Kd was found to be 2.58 µM.

(Values after patent US20060281130A1 (ENKAM PHARMACEUTICALS A S, published 2006).)
